# From patent US20200024360A1 (Janssen / Centocor, published 2020)
# T1: chimpanzee PSMA, full length (Pan troglodytes, UniProt Q04609 1-750 (human entry))
# T1 construct: On transfected HEK293F cells; also called chimp PSMA; H2Q3K5_PANTR
# T1 chain: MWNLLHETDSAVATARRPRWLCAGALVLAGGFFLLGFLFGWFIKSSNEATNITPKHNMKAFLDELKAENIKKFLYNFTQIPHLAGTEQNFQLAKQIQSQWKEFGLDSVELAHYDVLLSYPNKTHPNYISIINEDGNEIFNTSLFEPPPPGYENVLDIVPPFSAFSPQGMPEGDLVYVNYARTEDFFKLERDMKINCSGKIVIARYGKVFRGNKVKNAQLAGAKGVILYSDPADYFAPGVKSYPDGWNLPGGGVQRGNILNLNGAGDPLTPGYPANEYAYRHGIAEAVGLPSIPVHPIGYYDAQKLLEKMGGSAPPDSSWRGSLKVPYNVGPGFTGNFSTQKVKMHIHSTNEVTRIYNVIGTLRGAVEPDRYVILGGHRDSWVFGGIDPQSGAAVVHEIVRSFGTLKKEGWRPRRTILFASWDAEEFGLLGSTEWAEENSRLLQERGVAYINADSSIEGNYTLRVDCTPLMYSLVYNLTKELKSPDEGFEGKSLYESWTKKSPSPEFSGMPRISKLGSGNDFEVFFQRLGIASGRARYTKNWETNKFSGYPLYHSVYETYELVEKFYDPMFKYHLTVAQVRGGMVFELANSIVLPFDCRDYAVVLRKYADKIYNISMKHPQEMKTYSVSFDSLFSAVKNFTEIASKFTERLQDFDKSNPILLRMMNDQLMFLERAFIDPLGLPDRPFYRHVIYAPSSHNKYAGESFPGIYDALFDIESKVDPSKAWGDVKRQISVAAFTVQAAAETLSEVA
# T2: recombinant chimpanzee PSMA extracellular domain (ECD) protein (Pan troglodytes, UniProt Q04609 44-750 (human entry))
# T2 construct: also called Chimp PSMA ECD; PSMG8
# T2 chain: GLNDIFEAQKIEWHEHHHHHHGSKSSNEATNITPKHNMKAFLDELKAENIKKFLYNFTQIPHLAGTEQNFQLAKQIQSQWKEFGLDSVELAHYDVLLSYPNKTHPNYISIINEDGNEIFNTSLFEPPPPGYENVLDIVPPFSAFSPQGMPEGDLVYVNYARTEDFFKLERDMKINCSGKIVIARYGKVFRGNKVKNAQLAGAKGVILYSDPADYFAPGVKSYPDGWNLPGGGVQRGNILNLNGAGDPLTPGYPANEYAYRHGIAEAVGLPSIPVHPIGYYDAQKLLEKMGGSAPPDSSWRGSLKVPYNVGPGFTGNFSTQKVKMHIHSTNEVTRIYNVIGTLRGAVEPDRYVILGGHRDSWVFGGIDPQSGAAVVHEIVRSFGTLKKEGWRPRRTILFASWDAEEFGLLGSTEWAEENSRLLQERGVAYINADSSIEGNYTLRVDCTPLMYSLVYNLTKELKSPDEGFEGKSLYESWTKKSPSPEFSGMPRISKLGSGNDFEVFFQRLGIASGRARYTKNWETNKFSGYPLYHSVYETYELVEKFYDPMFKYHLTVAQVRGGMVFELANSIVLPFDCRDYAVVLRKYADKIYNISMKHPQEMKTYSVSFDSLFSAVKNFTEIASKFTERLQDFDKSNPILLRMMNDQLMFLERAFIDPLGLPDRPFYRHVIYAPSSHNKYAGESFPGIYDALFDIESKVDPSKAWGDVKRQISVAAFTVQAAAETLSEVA
# B1: PS3B27 (bispecific antibody, human IgG4 S228P, kappa, lambda, F234A L235A)
# heavy 1: not shown
# light 1: not shown
# heavy 2: EVQLVESGGGLVQPGGSLRLSCAASGFTFNTYAMNWVRQAPGKGLEWVARIRSKYNNYATYYAASVKGRFTISRDDSKNSLYLQMNSLKTEDTAVYYCARHGNFGNSYVSWFAYWGQGTLVTVSSASTKGPSVFPLAPCSRSTSESTAALGCLVKDYFPEPVTVSWNSGALTSGVHTFPAVLQSSGLYSLSSVVTVPSSSLGTKTYTCNVDHKPSNTKVDKRVESKYGPPCPPCPAPEAAGGPSVFLFPPKPKDTLMISRTPEVTCVVVDVSQEDPEVQFNWYVDGVEVHNAKTKPREEQFNSTYRVVSVLTVLHQDWLNGKEYKCKVSNKGLPSSIEKTISKAKGQPREPQVYTLPPSQEEMTKNQVSLTCLVKGFYPSDIAVEWESNGQPENNYKTTPPVLDSDGSFLLYSKLTVDKSRWQEGNVFSCSVMHEALHNHYTQKSLSLSLGK
# light 2: QTVVTQEPSLTVSPGGTVTLTCRSSTGAVTTSNYANWVQQKPGQAPRGLIGGTNKRAPGTPARFSGSLLGGKAALTLSGVQPEDEAEYYCALWYSNLWVFGGGTKLTVLGQPKAAPSVTLFPPSSEELQANKATLVCLISDFYPGAVTVAWKADSSPVKAGVETTTPSKQSNNKYAASSYLSLTPEQWKSHRSYSCQVTHEGSTVEKTVAPTECS
# notes: IgG4 PAA; PSMA arm chains first, then CD3 arm (F405L, R409K); also called PSMB127 x CD3B219; PS2B27
# B2: PS3B30 (bispecific antibody, human IgG4 S228P, kappa, lambda, F234A L235A)
# heavy 1: not shown
# light 1: not shown
# heavy 2: B1 heavy 2
# light 2: B1 light 2
# notes: IgG4 PAA; PSMA arm chains first, then CD3 arm (F405L, R409K); also called PSMB130 x CD3B219
# B3: PS3B19 (bispecific antibody, human IgG4 S228P, kappa, lambda, F234A L235A)
# heavy 1: not shown
# light 1: not shown
# heavy 2: B1 heavy 2
# light 2: B1 light 2
# notes: IgG4 PAA; PSMA arm chains first, then CD3 arm (F405L, R409K); also called PSMB119 x CD3B219
# B4: PS3B23 (bispecific antibody, human IgG4 S228P, kappa, lambda, F234A L235A)
# heavy 1: not shown
# light 1: not shown
# heavy 2: B1 heavy 2
# light 2: B1 light 2
# notes: IgG4 PAA; PSMA arm chains first, then CD3 arm (F405L, R409K); also called PSMB123 x CD3B219
# B5: PS3B28 (bispecific antibody, human IgG4 S228P, kappa, lambda, F234A L235A)
# heavy 1: not shown
# light 1: not shown
# heavy 2: B1 heavy 2
# light 2: B1 light 2
# notes: IgG4 PAA; PSMA arm chains first, then CD3 arm (F405L, R409K); also called PSMB128 x CD3B219
# B6: PS3B24 (bispecific antibody, human IgG4 S228P, kappa, lambda, F234A L235A)
# heavy 1: not shown
# light 1: not shown
# heavy 2: B1 heavy 2
# light 2: B1 light 2
# notes: IgG4 PAA; PSMA arm chains first, then CD3 arm (F405L, R409K); also called PSMB124 x CD3B219
# B7: PS3B22 (bispecific antibody, human IgG4 S228P, kappa, lambda, F234A L235A)
# heavy 1: not shown
# light 1: DIQMTQSPSSLSASVGDRVTITCRASQSIDRWLNWYQQKPGKAPKLLIYAASSLQSGVPSRFSGSGSGTDFTLTISSLQPEDFATYYCQQSPRYPLTFGQGTKVEIKRTVAAPSVFIFPPSDEQLKSGTASVVCLLNNFYPREAKVQWKVDNALQSGNSQESVTEQDSKDSTYSLSSTLTLSKADYEKHKVYACEVTHQGLSSPVTKSFNRGEC
# heavy 2: B1 heavy 2
# light 2: B1 light 2
# notes: IgG4 PAA; PSMA arm chains first, then CD3 arm (F405L, R409K); also called PSMB122 x CD3B219; PSB22
# B8: PS3B20 (bispecific antibody, human IgG4 S228P, kappa, lambda, F234A L235A)
# heavy 1: not shown
# light 1: not shown
# heavy 2: B1 heavy 2
# light 2: B1 light 2
# notes: IgG4 PAA; PSMA arm chains first, then CD3 arm (F405L, R409K); also called PSMB120 x CD3B219
# B9: PS3B25 (bispecific antibody, human IgG4 S228P, kappa, lambda, F234A L235A)
# heavy 1: not shown
# light 1: not shown
# heavy 2: B1 heavy 2
# light 2: B1 light 2
# notes: IgG4 PAA; also called PSMB87 x CD3B219
# Molecular target: T1, chimpanzee PSMA, full length
# Assay: FACS, whole cell binding, chimp PSMA HEK
# Experimental: PSMA×CD3 bispecific antibodies were tested for binding to PSMA positive cell lines LNCAP, human PSMA-HEK, Chimpanzee-PSMA-HEK and Cynomolgous monkey PSMA-HEK. To assess the binding capabilities of the PSMA bispecific antibodies, the cell-binding assay was utilized (described previously). Briefly, PSMA expressing tumor cells are bound by bispecific antibodies at known concentrations and the bound antibody is detected by an anti-human kappa light chain PE conjugated detection reagent (Invitrogen). The Mean Fluorescents Intensity (MFI) is the measure of bound bispecific antibody. The MFI is converted to a relative EC₅₀. EC₅₀ is a commonly used dose-response curve, where the half maximal effective concentration or the EC₅₀ point is defined as the inflection point of the curve. EC₅₀ s were determined by measuring cell bound bispecific and known concentrations. […] The dose response curves were then diluted down to that of background or no bispecific binding. The inflection point of this curve reflects the EC₅₀ point. The calculated EC₅₀ is determined by taking the ug/ml amount of bispecific antibody at the EC₅₀ point and converting it to a molarity value based on the MW of the bispecific antibody. Bispecific antibodies were normalized for protein concentration and then incubated with the same number of cells expressing either human or cyno PSMA. The MFI at each concentration was collected by flow cytometry and plotted as a function of concentration. Data was transformed via log 10 and then plotted. Nonlinear regression of binding curves was done to determine EC₅₀ s. These relative values were used for ranking PSMA binding to target cells.
row,Binder,EC50 [µg/mL]
1,B1,3.24
2,B2,3.29
3,B3,5.1
4,B4,0.88
5,B5,1.01
6,B6,1.1
7,B7,3.02
8,B8,3.33

# Molecular target: T2, recombinant chimpanzee PSMA …
# Assay: SPR Biacore 3000, bsAb captured by anti-Fc
# Experimental: Binding to recombinant Chimp PSMA by Biacore. The Affinity measurements using Surface Plasmon Resonance (SPR) were performed using a Biacore 3000 optical biosensor (Biacore-GE Healthcare). A biosensor surface was prepared by coupling anti-Human IgG Fc (Jackson ImmunoResearch Laboratory, cat #109-005-098) to the carboxymethylated dextran surface of a CM-5 chip (Biacore, cat # BR-1000-12) using the manufacturer instructions for amine-coupling chemistry. Approximately 16,000 RU (response units) of anti-Human IgG Fc antibodies were immobilized in each of four flow cells. The kinetic experiments were performed at 25° C. in running buffer (DPBS+0.03% P20+[…]). Dilutions of antigen (recombinant Chimp PSMA, concentration either from 1.2-300 nM or 3.7-900 nM in a 3-fold serial dilution) were prepared in running buffer. About 100 RU of PSMA×CD3 bispecific mAbs were captured on flow cell 2 to 4 of the sensor chip. Flow cell 1 was used as reference surface. Capture of PSMA×CD3 bispecific mAb was followed by a 3 or 5-minute injection (association phase) of antigen (recombinant Chimp PSMA) at 50 μl/min, followed by 15 or 20 minutes of buffer flow (dissociation phase). The chip surface was regenerated by two 18-second injections of 100 mM Phosphoric acid (H₃PO₄, Sigma, cat #7961) at 50 μl/min.
# The collected data were processed using BIAevaluation software (Biacore). First, double reference subtraction of the data was performed by subtracting the curves generated by buffer injection from the reference-subtracted curves for analyte injections. Then kinetic analysis of the data was performed using a Langmuir 1:1 binding model with global fit. The result for each PSMA×CD3 bispecific mAb was reported in the format of kₐ (On-rate), kd (Off-rate) and KD (Equilibrium dissociation constant).
Binder,Kd [nM],koff [s⁻¹],kon [M⁻¹ s⁻¹]
B1,22.4,0.002,89000
B2,52.3,0.00182,34800
B3,66.3,0.000414,6240
B4,9.1,0.00122,134000
B5,30.8,0.00191,62000
B6,38.6,0.000907,23500
B7,60.4,0.001,16600
B9,16.4,0.00108,65900
B8,59.1,0.000461,7820
